From patent publication US20120003668A1, “HIGH RESOLUTION COMPLEX STRUCTURE AND ALLOSTERIC EFFECTS OF LOW MOLECULAR WEIGHT ACTIVATORS ON THE PROTEIN KINASE PDK1” (UNIVERSITAET DES SAARLANDES, priority 2008, published 2012)
Changes are numbered by the printed parent chain. “Also recorded” adds a separate entry of the source. Non-standard residues stand in square brackets, D forms with d. Residues, ends and D or L forms follow the SMILES beside them. *: point of attachment. Biotin = O=C1N[C@H]2[C@H](CS[C@H]2CCCCC(=O)*)N1; pT = C[C@@H](OP(=O)(O)O)[C@H](N)C(=O)O; pS = N[C@@H](COP(=O)(O)O)C(=O)O

B1: PDK1 CD (50-359) wt (enzyme)
chain: GPMDGTAAEPRPGAGSLQHAQPPPQPRKKRPEDFKFGKILGEGSFSTVVLARELATSREYAIKILEKRHIIKENKVPYVTRERDVMSRLDHPFFVKLYFTFQDDEKLYFGLSYAKNGELLKYIRKIGSFDETCTRFYTAEIVSALEYLHGKGIIHRDLKPENILLNEDMHIQITDFGTAKVLSPESKQARANSFVGTAQYVSPELLTEKSACKSSDLWALGCIIYQLVAGLPPFRAGNEYLIFQKIIKLEYDFPEKFFPKARDLVEKLLVLDATKRLGCEEMEGYGPLKAHPFFESVTWENLHQQTPPKLTA
notes: also called PDK1 50-359; PDK1 CD wt
B2: PDK1 CD (50-359) [Phe224Trp] (enzyme)
chain: AMDGTAAEPRPGAGSLQHAQPPPQPRKKRPEDFKFGKILGEGSFSTVVLARELATSREYAIKILEKRHIIKENKVPYVTRERDVMSRLDHPFFVKLYFTFQDDEKLYFGLSYAKNGELLKYIRKIGSFDETCTRFYTAEIVSALEYLHGKGIIHRDLKPENILLNEDMHIQITDWGTAKVLSPESKQARANSFVGTAQYVSPELLTEKSACKSSDLWALGCIIYQLVAGLPPFRAGNEYLIFQKIIKLEYDFPEKFFPKARDLVEKLLVLDATKRLGCEEMEGYGPLKAHPFFESVTWENLHQQTPPKLT
notes: also called PDK1[Phe224Trp]; PDK1 Phe224Trp
B3: PDK1 CD (50-359) [Thr226Trp] (enzyme)
chain: B2 chain with W175F, T177W
notes: also called PDK1[Thr226Trp]; PDK1 Thr226Trp

Tests used:
[1] = system: PDK1; test: PDK1 protein kinase activity test with T308tide substrate; assay type: biochemical, human
Procedure: In brief, PDK1 activity assay was performed at room temperature (22° C.) in a 20 μl mix containing 50 mM Tris pH 7.5, 0.05 mg/ml BSA, 0.1% β-mercaptoethanol, 10 mM MgCl2, 100 μM [γ^32P]ATP (5-50 cpm/pmol), 0.003% Brij, 150 ng PDK1, and T308tide (from 0.1 to 1 mM). […] Experiments were repeated at least twice.

[2] = target: T1, PDK1 catalytic domain (Homo sapiens, UniProt O15530); test: TNP-ATP fluorescence probing of the ATP binding site conformation; assay type: biochemical; details: 40 μM TNP-ATP, 15 μM PDK1 catalytic domain
T1 construct: The catalytic domain (CD) of PDK1 50-359 and its mutants
T1 sequence (O15530 50-359): B2 chain with W175F
Description: Probing the conformation of the ATP binding site in PDK1: The activation of PDK1 by HM-polypeptides and small compounds is due to a change in the conformation of the enzyme. We probed the conformation of the ATP binding site in PDK1 by scanning the steady-state fluorescence of TNP-ATP/PDK1, in the presence or absence of P-HM-polypeptides, PIFtide, or small molecular weight compounds. Data were obtained in a Varian Cary Eclipse spectrofluorometer (excitation λ=479 nm; emission scanning, λ=500-600 nm; excitation slit=10 nm; emission slit=10 nm) at a rate of 200 nm/min, with 150 datapoints/100 nm scanning and 0.3 s averaging time. The incubation was performed at 20° C. in a buffer containing 50 mM Tris pH 7.5, 0.1 mM EDTA, 187 mM NaCl, 40 μM TNP-ATP, 15 μM PDK1 catalytic domain, 1 mM DTT and 1% DMSO. In the absence of PDK1, TNP-ATP produced approximately 1.5 arbitrary units (a.u.) of fluorescence, and the inclusion of PDK1 increased its fluorescence intensity to approximately 3.3 a.u. […] In preliminary tests, inclusion of 2.5 mM MgCl2 in the assay mix produced similar results. Data for each condition are the average of 3 scans.

[3] = target: T2, PDK1 CD wt (Homo sapiens, UniProt O15530); test: Surface plasmon resonance (BiaCore) on biotin-P-HM-S6K chip; assay type: binding; details: estimated from response units at equilibrium; read-out: Kd of direct binding of PDK1 CD wt to immobilized peptide
T2 construct: PDK1 CD (50-359), wt (0.35 μM), PDK1 [Phe224Trp] or PDK1 [Thr226Trp] were injected onto the system; GST (N); made in house; host or cells: insect cells
T2 sequence (O15530 50-359): B2 chain with W175F
Procedure: Surface Plasmon resonance (BiaCore) and alpha-screen interaction and displacement assays: Binding of GST-PDK1 to a P-HM-polypeptide derived from S6K1 shown in FIG. 6 was analysed by surface plasmon resonance on a BiaCore 3000 system using a streptavidin-coated Sensor chip (SA) and biotin-P-HM-polypeptide, as previously described (Biondi, R. M. et al., Embo. J. 20:4380-4390 (2001). The interaction of His-PDK1 with biotin-PIFtide and the displacement by compounds shown in FIG. 3 was performed using the alpha-screen Ni-Chelate kit (Perkin Elmer) on an Envision 2104 multilabel system (Perkin Elmer).
BiaCore analysis was performed as described previously (Biondi, R. M. et al., Embo. J. 19:979-988 (2000)). […] Since both mutants were performed on the same construct of PDK1, their mass should be very similar and therefore should also produce 600RU when all biotin-(P)HM-S6K polypeptides on the same chip are bound to the mutant PDK1 proteins. Unfortunately, when mutant PDK1 Phe224Trp and PDK1 Thr226Trp were analysed, the injection of the mutants at concentrations higher than 1.3 μM prompted unspecific effects, therefore making difficult the evaluation. […]

[4] = target: biotin-P-HM-polypeptide derived from S6K1; test: SPR (BiaCore 3000), biotin-P-HM-S6K on streptavidin chip
[5] = target: biotin-P-HM-polypeptide derived from S6K1; test: SPR (BiaCore), immobilised biotin-P-HM-S6K
[6] = target: T3, biotin-PIFtide (biotin (position not given)); test: SPR (BiaCore), immobilised biotin-PIFtide
T3 construct: Biotinylated PIFtide
T3 peptide: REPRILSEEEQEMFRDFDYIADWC

[7] = target: biotin-P-HM-polypeptide derived from S6K1; test: SPR (BiaCore 3000), biotin-P-HM-S6K on streptavidin chip, equilibrium responses
[8] = target: T4, PIFtide
T4 chain: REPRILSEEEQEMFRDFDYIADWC

[9] = target: biotin-P-HM-polypeptide derived from S6K1; test: SPR (BiaCore), biotin-P-HM-S6K chip; injected at 1.8 vs 1.3 µM
[10] = target: biotin-P-HM-polypeptide derived from S6K1; test: SPR (BiaCore), biotin-P-HM-S6K on streptavidin chip; mutant injected at 1.3 or 1.8 µM (which mutant at which concentration is not stated)
[11] = target: B3; test: SPR competition (BiaCore): PDK1 [Thr226Trp] pre-incubated with PIFtide, then injected over immobilised biotin-P-HM-S6K; PIFtide displaces PDK1 from biotin-P-HM-S6K
[12] = target: B1; test: SPR competition (BiaCore): PDK1 CD wt pre-incubated with PIFtide, then injected over immobilised biotin-P-HM-S6K; PIFtide displaces PDK1 from biotin-P-HM-S6K
[13] = target: B2; test: SPR competition (BiaCore): PDK1 [Phe224Trp] pre-incubated with PIFtide, then injected over immobilised biotin-P-HM-S6K; PIFtide displaces PDK1 from biotin-P-HM-S6K

Chain of biotin-P-HM-polypeptide derived from S6K1 (peptide, as listed by the source limits assumed): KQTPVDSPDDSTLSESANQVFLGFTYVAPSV

Question: Which results are given for `O=C(O)/C=C(\CCc1ccc(Br)cc1F)c1ccccc1` [PS133]?
Answer: activation of PDK1 ([1]; T308tide as substrate): nor did they activate PDK1; effect on TNP-ATP fluorescence intensity in the presence of PDK1 [2]: did not produce any decrease; also recorded: did not affect

Question: For `CC(C)C[C@H](NC(=O)[C@H](Cc1ccccc1)NC(=O)[C@@H](NC(=O)[C@H](CCC(N)=O)NC(=O)[C@H](CC(N)=O)NC(=O)[C@H](C)NC(=O)[C@H](CO)NC(=O)[C@H](CCC(=O)O)NC(=O)[C@H](CO)NC(=O)[C@H](CC(C)C)NC(=O)[C@@H](NC(=O)[C@H](CO)NC(=O)[C@H](CC(=O)O)NC(=O)[C@H](CC(=O)O)NC(=O)[C@@H]1CCCN1C(=O)[C@H](COP(=O)(O)O)NC(=O)[C@H](CC(=O)O)NC(=O)[C@@H](NC(=O)[C@@H]1CCCN1C(=O)[C@@H](NC(=O)[C@H](CCC(N)=O)NC(=O)[C@H](CCCCN)NC(=O)CCCC[C@@H]1SC[C@@H]2NC(=O)N[C@@H]21)[C@@H](C)O)C(C)C)[C@@H](C)O)C(C)C)C(=O)NCC(=O)N[C@@H](Cc1ccccc1)C(=O)N[C@H](C(=O)N[C@@H](Cc1ccc(O)cc1)C(=O)N[C@H](C(=O)N[C@@H](C)C(=O)N1CCC[C@H]1C(=O)N[C@@H](CO)C(=O)N[C@H](C(=O)O)C(C)C)C(C)C)[C@@H](C)OP(=O)(O)O` [biotin-P-HM-S6K] (Biotin-KQTPVD[pS]PDDSTLSESANQVFLGF[pT]YVAPSV-OH; N-terminus and C-terminus assumed), which Kd [3] is on record?
Answer: Its Kd is 500 nM.

Question: “KTFCGTPEYLAPEVRR [T308tide, polypeptide substrate of PDK1 derived from the PDK1 phosphorylation site on PKB]” was tested. Which Km ([1]; estimated, 22° C.) did it give?
Answer: The Km was over 10 mM.

Question: What does the source list for B1?
Answer: response units at maximum binding (PDK1 injected at 5.4 µM) [4]: 600 RU; percent of maximal binding of the wild type protein [5]: 50%; percent of maximal binding of the wild type protein [6]: ~50%; Kd [7]: 500 nM; PDK1 activity, T308tide as substrate [8]: the wild type protein and PDK1[Phe224Trp] were activated by PIFtide; stated: activates; PDK1 activity (%) with T308tide as substrate [8]: The bar without PIFtide is at 100 %. The two hatched PIFtide bars (labelled 2.5 and 40 µM) are both between 350 and 400 %, with little difference between them.

Question: Which percent of maximal binding of the wild type protein [5] does the source give for B2 here?
Answer: The percent of maximal binding of the wild type protein was 50%.

Question: And the “percent of maximal binding of the wild type protein” value [6]?
Answer: Its value is about 50%.

Question: And the response units [9]?
Answer: Its response units is 200 RU.

Question: And the response units [10]?
Answer: The response units was over 200 RU.

Question: And the “PDK1 activity, T308tide as substrate” value [8]?
Answer: The value was “the wild type protein and PDK1[Phe224Trp] were activated by PIFtide”.

Question: And the “stated: activates; PDK1 activity (%) with T308tide as substrate” value [8]?
Answer: Its value is “The bar without PIFtide is at 100 %. The two hatched PIFtide bars (labelled 2.5 and 40 µM) are both between 440 and 480 %”.

Question: B3 was tested. Which percent of maximal binding of the wild type protein [5] did it give?
Answer: The percent of maximal binding of the wild type protein was 50%.

Question: And the “percent of maximal binding of the wild type protein” value [6]?
Answer: The value was about 50%.

Question: And the response units [9]?
Answer: The response units was 200 RU.

Question: And the response units [10]?
Answer: The response units was over 200 RU.

Question: And the “PDK1 activity, T308tide as substrate” value [8]?
Answer: Its value is “PDK1[Thr226Trp] was not activated by PIFtide”.

Question: And the “stated: no activation; PDK1 activity (%) with T308tide as substrate” value [8]?
Answer: The value was “The bar without PIFtide is at 100 %. The two hatched PIFtide bars (labelled 2.5 and 40 µM) stay at about 100 %”.

Question: Does REPRILSEEEQEMFRDFDYIADWC (also called HM-polypeptide PIFtide) [PIFtide] bind [11]?
Answer: Result: binds

Question: Does REPRILSEEEQEMFRDFDYIADWC (also called HM-polypeptide PIFtide) [PIFtide] bind [12]?
Answer: Result: binds

Question: Does REPRILSEEEQEMFRDFDYIADWC (also called HM-polypeptide PIFtide) [PIFtide] bind [13]?
Answer: Result: binds
